Source: patent US20080206230A1 (INSTITUT PASTEUR, published 2008)

Target: T1, rat NEP ecto-endopeptidase (renal tissue) (rat, UniProt P07861 2-750)
T1 sequence (looked up): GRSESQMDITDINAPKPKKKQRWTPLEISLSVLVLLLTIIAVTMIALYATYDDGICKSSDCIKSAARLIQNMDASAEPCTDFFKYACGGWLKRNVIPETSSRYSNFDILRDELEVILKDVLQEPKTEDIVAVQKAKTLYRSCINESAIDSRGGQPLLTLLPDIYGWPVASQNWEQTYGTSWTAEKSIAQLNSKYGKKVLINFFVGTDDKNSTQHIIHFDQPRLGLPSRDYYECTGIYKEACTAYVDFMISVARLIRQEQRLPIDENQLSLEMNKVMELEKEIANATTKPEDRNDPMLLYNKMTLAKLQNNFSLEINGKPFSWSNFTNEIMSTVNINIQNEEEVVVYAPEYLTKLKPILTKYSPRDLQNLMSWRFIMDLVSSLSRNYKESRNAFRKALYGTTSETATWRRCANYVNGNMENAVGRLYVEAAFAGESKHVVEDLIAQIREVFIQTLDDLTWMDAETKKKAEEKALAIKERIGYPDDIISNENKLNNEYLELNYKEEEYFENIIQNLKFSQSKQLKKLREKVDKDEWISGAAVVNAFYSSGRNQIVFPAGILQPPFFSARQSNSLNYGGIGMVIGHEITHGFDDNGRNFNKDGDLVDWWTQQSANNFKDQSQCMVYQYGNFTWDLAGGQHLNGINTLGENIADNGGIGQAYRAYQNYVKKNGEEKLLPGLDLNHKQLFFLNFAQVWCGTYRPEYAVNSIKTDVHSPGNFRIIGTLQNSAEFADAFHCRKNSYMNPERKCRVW
Test: cell-based or functional assay

inhibitory efficiency towards rat renal NEP relative to human cell surface NEP (LNCaP): ≥ 10 fold lower
Binder: QRFSR [QRFSR peptide]
